assay: soluble on expression in E. coli; label from the status in PepcDB or PDB records

Soluble on expression in E. coli, not soluble:
MGSDKIHHHHHHMSRKSNAFSGSAAGLQHPDGRNDSGQKQQMSSPAALLQSDTLGSRLTSRGDLTSFFMELTAEIGADSYMLVAIVHDQDRNDARIVSSNWIFDAIELIGKRLIASLAQGALTVAPGIRPRPLVAARAPDADGLVSGEEARLLDVLGHAEIYSLRLNVGRQRLFALFSAATSGQIDQPALMKAQLKCCYALSHIPQLIAAAAMQDPLSDRERECLFWVSEGKTTDEVAVILGVSSNTVNSYITHAIQKFAASNRAMAIATAIRSGII
MGSDKIHHHHHHMSRVETIINELSLIASNPRKAMEDYKKETGKGAVGIMPVYAPEELVHAAGFLPMGIWGGQKSISKARTYLPPFACSIMQSVMEMQLEGVYDDLEAVIFSVPCDTLKCLSQKWKGKSPVIVFTHPQNRKLEAANKFLVEEFKLVREKLEKILNVKITDEAINNSIEVYNENRKVMREFSDIAGQYSKTISAAARHAVIKARFFMEKSKHTAMVRELINELKAMPAEECGKKVVLTGIMAEPNEVLDILTENGFTVVADDLAQESRQFRLDVPAGTDPLYRLAEWWQQFDGCALATNVKKPRGQMLMDMVKKYDADAVIVCMMKFCDPEEFDYPIYYSQFEEAGIKSLYIEIDQESTSFEQIKTRVQSFGEML
MGSDKIHHHHHHMSSEEDYFDELEYDLADEVNEEKEDIQTKKLTTVNCQTEKFNPFEILPESIELFRTLALISPDRLSLSETAQILPKIVDLKRILQQQEIDFIKLLPFFNEIIPLIKSNIKLMHNFLISLYSRRFPELSSLIPSPLQYSKVISILENENYSKNESDELFFHLENKAKLTREQILVLTMSMKTSFKNKEPLDIKTRTQILEANSILENLWKLQEDIGQYIASKISIIAPNVCFLVGPEIAAQLIAHAGGVLEFSRIPSCNIASIGKNKHLSHELHTLESGVRQEGYLFASDMIQKFPVSVHKQMLRMLCAKVSLAARVDAGQKNGDRNTVLAHKWKAELSKKARKLSEAPSISETKALPIPEDQPKKKRAGRKFRKYKEKFRLSHVRQLQNRMEFGKQEQTVLDSYGEEVGLGMSNTSLQQAVGATSGSRRSAGNQAKLTKVMKHRISEANQQADEFLISLGHNTEQPNLSPEMVQMHKKQHTNPEEETNWFSGHG
MGSDKIHHHHHHMSSHLAHGMGTEPVEPDWPPLTEAEVADVVGPSRVVWRSPRPLSAAAVVERGGRRLFVKRHHLSVRTPEGLAEEHAFLRHLRERGAPVVEVLDVATRQEWVYEVHSAGLGTDLYRDDLSWSPFRSSTHARAAGAALARLHLAADGFEAPRRIPQPLVASFTIFAADDPGTALERYVAERPALAGALADHPWRADTRRVLLPLFERLAPHLPLLEPLWTHNDWHASNLLWDASGEVSTVLDFGMSDRTTAVHDLATAIERNAVQWLQPGFPVREQDVDALLDGYQSVRPLTVSESAALPELLPLVHAEFALSEMGYFHGITGSAENTRLAYAYLVDHAEWFTGDAGSHLVDRVRHRAAAAPKPPPAGRPLSDASS
MGSDKIHHHHHHMSSSGKVIVVGAGIVGLATAWHLQEHGFEVSVLDRDGVAAGSSWGNAGWLAPAKTIPLSEPGLWTYGPKELFNPVSPMHMPLRVDPKLWLFLAQFMAQAFQRKWDSTMADLTEIDKVALEAFDELSIGGVEGLTHEGPFVIGFEEERQSAGFRKEIDGVSRHGQKVEMSRLENPQELAPMLNEQIQVAYRLEGQRFIEPGPYVQSLADAVVKRGGVIRAGAEVVHVAKGDRPAVILADGSREEADKVVVATGAWLPGLTREYGVKTLVQAGRGYSFSVATDIPAKHSVYLPHHRMACTPYEGRFRIAGTMEFRGPDEPFQQGRVDAIVSQAKKVMRGIDFNDRQDEWVGSRPVTPDGRPLIGQTKAENIYVAGGHGMWGVVLGPATGKYLAELMATGNTNPIIKPFDPLR
MGSDKIHHHHHHMSTIIQNTLAPKVQNQLIHHLPALEQAELLSQAKLVQLNFADLLCQPGESYQYVYFPLTAFISLIAKLPKHPALEMGLIGYEGMLGATTLLSTRQVPSEAIIQGSGKAWRIPIATFEDLLAQSSSLRQILETYLYQLLCQLSQNAVCAHFHSVESRLARWLLMSHDRIQTNELFLTHQFLSDMLGVRRSSITEAAGELQASGCISYNRGRLYILDRQGLLARCCSCYHLMRT
MGSDKIHHHHHHMSTTEIVKEAESRHDFALIANWIQPQSKVLDLGCGNGSLLSFLREKLGVKGYGVDKDDDNVLACIGHGVNVIQMDLEAGLAGFDSLSFDYVILSQTLQAMVNTEGVLREMLRVGKQGIITFPNFGYWRHRIQLMAGHMPVSDNIPHQWYNTPNLHLCTIDDFEALCDKMNIRITDRIVINEGNTVSFMPNLFGSLAIYRFEQAAWPVSY
MGSDKIHHHHHHMSVFLRNAWYMACWSHEVPEGGFLARRLLDKPWVIWRKADGTPVIMADRCPHRFVPLSRGQRDGDMMRCGYHGLAFSSSGGCVHNPFTDEALPLARVEVLPVVEKHTGLWFWPGDADRADPALIPDFGFLDVERPLHRGHLKMDAGYELVTDNLMDLSHAEFIHRDSFGVNGSLLTCGQHEVVQDEGGAIWNNWTMPDSEPPSWAVAMLPEGARTDQWLHMRWNAPSCLALFLGLARSGTDRKDMVVPPMADPHILTPETVTSTHYFYTHEPTPEAHALLEKAFLEEDHPMLHAQQEAMGSADFWDLRPVVLPSDAGAIRVRRRMMQLRRAEAGLEEEAAA
MGSDKIHHHHHHMSVHSEVLHALLKDPFIQKLIDAEPVFWANSGKKEGPLPRADEWATEIAEAEKRMQRFAPYIAEVFPETKGAKGIIESPLFEVQHMKGKLEAAYQQPFPGRWLLKCDHELPISGSIKARGGIYEVLKYAENLALQEGMLQETDDYRILQEERFTGFFSRYSIAVGSTGNLGLSIGIIGAALGFRVTVHMSADAKQWKKDLLRQKGVTVMEYETDYSEAVNEGRRQAEQDPFCYFIDDEHSRQLFLGYAVAASRLKTQLDCMNIKPSLETPLFVYLPCGVGGGPGGVAFGLKLLYGDDVHVFFAEPTHSPCMLLGLYSGLHEKISVQDIGLDNQTAADGLAVGRPSGFVGKLIEPLLSGCYTVEDNTLYTLLHMLAVSEDKYLEPSALAGMFGPVQLFSTEEGRRYAQKYKMEHAVHVVWGTGGSMVPKDEMAAYNRIGADLLKKRNGK
MGSDKIHHHHHHMSVKILFKNATVFPITSRPFKGDVLVSNGKVEKVGENIEDPDAEIVDLTGKFLFPGFVDAHSHIGLFEEGVGYYYSDGNEATDPVTPHVKALDGFNPQDPAIERALAGGVTSVMIVPGSANPVGGQGSVIKFRSIIVEECIVKDPAGLKMAFGENPKRVYGERKQTPSTRMGTAGVIRDYFTKVKNYMKKKELAQKEGKEFTETDLKMEVGEMVLRKKIPARMHAHRADDILTAIRIAEEFGFNLVIEHGTEAYKISKVLAEKKIPVVVGPLLTFRTKLELKDLTMETIAKLLKDGVLIALMCDHPVIPLEFATVQAATAMRYGAKEEDLLKILTVNPAKILGLEDRIGSIEPGKDADLVVWSGHPFDMKSVVERVYIDGVEVFRR
MGSDKIHHHHHHMSVVNKIIGVCRFSYLGLGGFRINEAGAEEAAKALYAADRMTLRFAYFETICLPSLAAQTDSDFTFVALIADTMPLPFRQRLKRLTETYPFLRIAVLESTGPYNSTRRAFSRGLDGQETDFITGFRLDDDDAVSVDYIARTREAADTLITLGWATKDDPAAVCFHRGIYWDMKRPDAPFWDYSEIQPLGLASAMVHHRDSRQNIYRWNHRKLASKVRCWTDPSDVMFLRTLHDHNDSGRVMPRDAEQIPDEQARRLLKDRFGLNPKRLLSTMDRVHGGTDAARQWAAETREDPFGKDGDA
MGSDKIHHHHHHMSYDEAFKTLLISSNAKLNLELNHLVIKQDENIAKLFLKDINIIVLESLQISISSALFNAFAKYKIILLTCDETHSINGVFTPFLGHFQSAKIAKEQMNVSAQKKAILWQKIIKNKILNQAFILKKHNKIEQSNELINLAKKVSLNDSKNIEAVAAALYFKTLFGTSFSRDELCFENSALNYGYAIIRACIIRAVCISGLLPWLGIKHDNIYNSFALCDDLIEVFRASVDDCVLKLKGESEFLSKDDKRALIGNLQSKINFDGQNYPLNRAINHYVANFKNALLYEDELKIVKFDD
MGSDKIHHHHHHMSYLTEKLREEKVFKDPVHGYVHVSDKIIWDLIATKEFQRLRRIHQLGTTSLTFHGAEHSRFNHSLGVYEIVRQIIDVTFANEPQLDPEERMVALCAALLHDLGHGPFSHAFEKVFGTDHESYTQEIIIGDTEVNKILMRAGEEFPLKVAAIIKKNYPNQTLVKLISSQIDADRMDYLLRDAYYTGVSYGKFDLERILRVLRPSPDGNGVIVKYSGMHAVEDYIMSRYQMYQQVYFHPVSRSGEVLLWKILERAKKLYCAGYEFQATPIQVLPFFLNEVSLKDYIVLDDIVLMYYFSIWQEEEDPILSDLCSRFLNRRLLRYINYDPKEDAELYAELKGLLEKADIDPSYYLVIDSSSDLPYDYYLPGVGSGKDPIKLLMGNGELRELSTESPVVEAIGRERRTDIKLYYPLDFIESGHVEEAITERMIALIHAHSLKEK
MGSDKIHHHHHHMTAIRVTITQVKGSAPRDTGTSMLVFADRIEGTIGGGALEWEAMRLARDMLRNGTSVTTHTFPLGPALGQCCGGVVKLELQAATQWKGVEKTPIWIWGAGHVGRAIIHTLSPFSALDLSWIDTAADRFPADIPNDTHRLIATDPPRLMPHAPPNAHHLIATYSHDIDLALCHAALTHGFASAGVIGSATKWARFRKRLGQMGHSGAQISRIMCPIGDPGLGKHPQAIAIGVAARLLGEQMLQESAQHLKDVDHGGT
MGSDKIHHHHHHMTAPTAQSMQAQPIHARLMNGEVLSQDDATAFMREVMSGDMSGVRMAAALAALRVRGETPEEIAGFAQAMRESAVTVKVRPRDVLMDVVGTGGDGAHTFNISTTTAFVLAGAGVPIAKHGNRAASSRAGSADVLEALGVNLDASPEVIQEAIDTLGVGFMFARNYHPALRHAAPVRSDLAARTVFNILGPLSNPAGATHLVVGVFRADLTRTLAEALRHLGAKGATVVYGDGLDEFTVCGPNTVSGLRDGEIIDRTMHPEEFGVDLHPKTAIVGGSPAENAEITHALLTGGGTPAQKDIVALNAGAALRTAGRVGTIREGVEQAREVMKGGQGWEMLQKYGALTKR
MGSDKIHHHHHHMTARHSDCVHCLMRGQSIFAGLSREEVCELGMDVQDIHVPAGTTIYHEGDPAQYAYTLRQGGIKLVKSLPNGHAQIVRLLHHGDLLGFEGLRTDRHRHSAITLTGTDLCRLELRALDALSQRLPAVREAIFARWQQALQEAEDRIVELGAKKADARLATFLCQWVGAYPQQRAAPFPLTRQDLGEFLGLSTEHVSRIMADLKRHRLLHEHKGQIEIPDPQNLFLYASSDGTRA
MGSDKIHHHHHHMTARLESNAPVQYAFRLDDREVAVNPLIGRPLRLEYLGSIFCTHCGRKTKKSFSQGYCYPCFTRLAQCDSCIVSPEKCHYEQGTCREPEWGERFCMTDHVVYLANSSGVKVGITRASQIPTRWIDQGARQALPILRVATRQQSGLVEDLLRSQVADRTNWRAMLKGEAEPVDLAAVREQLFDQCADGLRELQQRFGLQAIQPVIDLDPLEIAYPVEAYPSKVASLDLEKTPIVEGTLRGIKGQYLILDTGVINIRKYTAYQIAVHH
MGSDKIHHHHHHMTDDIYFAPLLPWQHGLWSQLTMRVLAQKQSLPHALLAAGMQGMGKRAFVWRLVAWLLCRARDEHPLGACGHCESCQWLRSGTHPSLQALPLISLPISADNAHTQEVASGTAKDKKTTKAASNGSLKIKVDEIRALQPFIYQGGQGMRICVLDHAEQMTIAAANALLKTLEEPQAQVHLFLISDAPAQLLPTIKSRVQQLSLQTIDPAIAVDYVTKVLGSTVHREALGTDVIEQLIQLANGAPLAAVALAQAPWYSKRALWLTTWQALRSGKRSSVAASDYWQIHLGIAEFIRLSELMVIDIRRVGLGFEAQQKDINFSTTLNGYQPIDNELEAFAHSLQQTKIALQQNVQEKFAYDKLMQELACL

From the DeepSol protein solubility set
